biological target: T1, Human CD137 ECD (human); assay: Biacore SPR, vs parent H183/L072
T1 construct: entry includes C-terminal His-tag and biotin acceptor peptide; also called human CD137 extracellular domain; 4-1BB
T1 sequence (chain, as listed by the source limits assumed): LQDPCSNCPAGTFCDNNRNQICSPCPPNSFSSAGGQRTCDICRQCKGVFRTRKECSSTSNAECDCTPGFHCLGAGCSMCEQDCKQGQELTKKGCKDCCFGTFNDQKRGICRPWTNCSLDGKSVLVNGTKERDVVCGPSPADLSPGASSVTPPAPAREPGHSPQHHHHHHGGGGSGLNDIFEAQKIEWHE

Binder | fold change of affinity [fold]
H183/L072 VL F55R (antibody, name in Kabat numbering, V domains shown, Dual-Ig) VH: QVQLVESGGGLVQPGRSLRLSCAASGFTFSNAWMHWVRQAPGKGLEWVAQIKDKGNAYAAYYAPSVKGRFTISRDDSKNSIYLQMNSLKTEDTAVYYCHYVHYASASTVLPAFGVDAWGQGTTVTVSS VL: DIVMTQSPLSLPVTPGEPASISCQASQELVHMNRNTYLHWYQQKPGQAPRLLIYKVSNRRPGVPDRFSGSGSGTDFTLKISRVEAEDVGVYYCAQGTSVPFTFGQGTKLEIK | 0
H183/L072 VL F55W (antibody, name in Kabat numbering, V domains shown, Dual-Ig) VH: QVQLVESGGGLVQPGRSLRLSCAASGFTFSNAWMHWVRQAPGKGLEWVAQIKDKGNAYAAYYAPSVKGRFTISRDDSKNSIYLQMNSLKTEDTAVYYCHYVHYASASTVLPAFGVDAWGQGTTVTVSS VL: DIVMTQSPLSLPVTPGEPASISCQASQELVHMNRNTYLHWYQQKPGQAPRLLIYKVSNRWPGVPDRFSGSGSGTDFTLKISRVEAEDVGVYYCAQGTSVPFTFGQGTKLEIK | 0.2
H183/L072 VL F96I (antibody, name in Kabat numbering, V domains shown, Dual-Ig) VH: QVQLVESGGGLVQPGRSLRLSCAASGFTFSNAWMHWVRQAPGKGLEWVAQIKDKGNAYAAYYAPSVKGRFTISRDDSKNSIYLQMNSLKTEDTAVYYCHYVHYASASTVLPAFGVDAWGQGTTVTVSS VL: DIVMTQSPLSLPVTPGEPASISCQASQELVHMNRNTYLHWYQQKPGQAPRLLIYKVSNRFPGVPDRFSGSGSGTDFTLKISRVEAEDVGVYYCAQGTSVPITFGQGTKLEIK | 0
H183/L072 VL F96D (antibody, name in Kabat numbering, V domains shown, Dual-Ig) VH: QVQLVESGGGLVQPGRSLRLSCAASGFTFSNAWMHWVRQAPGKGLEWVAQIKDKGNAYAAYYAPSVKGRFTISRDDSKNSIYLQMNSLKTEDTAVYYCHYVHYASASTVLPAFGVDAWGQGTTVTVSS VL: DIVMTQSPLSLPVTPGEPASISCQASQELVHMNRNTYLHWYQQKPGQAPRLLIYKVSNRFPGVPDRFSGSGSGTDFTLKISRVEAEDVGVYYCAQGTSVPDTFGQGTKLEIK | 0
H183/L072 VL F96Q (antibody, name in Kabat numbering, V domains shown, Dual-Ig) VH: QVQLVESGGGLVQPGRSLRLSCAASGFTFSNAWMHWVRQAPGKGLEWVAQIKDKGNAYAAYYAPSVKGRFTISRDDSKNSIYLQMNSLKTEDTAVYYCHYVHYASASTVLPAFGVDAWGQGTTVTVSS VL: DIVMTQSPLSLPVTPGEPASISCQASQELVHMNRNTYLHWYQQKPGQAPRLLIYKVSNRFPGVPDRFSGSGSGTDFTLKISRVEAEDVGVYYCAQGTSVPQTFGQGTKLEIK | 0
H183/L072 VL F96V (antibody, name in Kabat numbering, V domains shown, Dual-Ig) VH: QVQLVESGGGLVQPGRSLRLSCAASGFTFSNAWMHWVRQAPGKGLEWVAQIKDKGNAYAAYYAPSVKGRFTISRDDSKNSIYLQMNSLKTEDTAVYYCHYVHYASASTVLPAFGVDAWGQGTTVTVSS VL: DIVMTQSPLSLPVTPGEPASISCQASQELVHMNRNTYLHWYQQKPGQAPRLLIYKVSNRFPGVPDRFSGSGSGTDFTLKISRVEAEDVGVYYCAQGTSVPVTFGQGTKLEIK | 0
H183/L072 VL F55T (antibody, name in Kabat numbering, V domains shown, Dual-Ig) VH: QVQLVESGGGLVQPGRSLRLSCAASGFTFSNAWMHWVRQAPGKGLEWVAQIKDKGNAYAAYYAPSVKGRFTISRDDSKNSIYLQMNSLKTEDTAVYYCHYVHYASASTVLPAFGVDAWGQGTTVTVSS VL: DIVMTQSPLSLPVTPGEPASISCQASQELVHMNRNTYLHWYQQKPGQAPRLLIYKVSNRTPGVPDRFSGSGSGTDFTLKISRVEAEDVGVYYCAQGTSVPFTFGQGTKLEIK | 0
H183/L072 VL F96R (antibody, name in Kabat numbering, V domains shown, Dual-Ig) VH: QVQLVESGGGLVQPGRSLRLSCAASGFTFSNAWMHWVRQAPGKGLEWVAQIKDKGNAYAAYYAPSVKGRFTISRDDSKNSIYLQMNSLKTEDTAVYYCHYVHYASASTVLPAFGVDAWGQGTTVTVSS VL: DIVMTQSPLSLPVTPGEPASISCQASQELVHMNRNTYLHWYQQKPGQAPRLLIYKVSNRFPGVPDRFSGSGSGTDFTLKISRVEAEDVGVYYCAQGTSVPRTFGQGTKLEIK | 0
H183/L072 VL F96T (antibody, name in Kabat numbering, V domains shown, Dual-Ig) VH: QVQLVESGGGLVQPGRSLRLSCAASGFTFSNAWMHWVRQAPGKGLEWVAQIKDKGNAYAAYYAPSVKGRFTISRDDSKNSIYLQMNSLKTEDTAVYYCHYVHYASASTVLPAFGVDAWGQGTTVTVSS VL: DIVMTQSPLSLPVTPGEPASISCQASQELVHMNRNTYLHWYQQKPGQAPRLLIYKVSNRFPGVPDRFSGSGSGTDFTLKISRVEAEDVGVYYCAQGTSVPTTFGQGTKLEIK | 0
H183/L072 VL F55V (antibody, name in Kabat numbering, V domains shown, Dual-Ig) VH: QVQLVESGGGLVQPGRSLRLSCAASGFTFSNAWMHWVRQAPGKGLEWVAQIKDKGNAYAAYYAPSVKGRFTISRDDSKNSIYLQMNSLKTEDTAVYYCHYVHYASASTVLPAFGVDAWGQGTTVTVSS VL: DIVMTQSPLSLPVTPGEPASISCQASQELVHMNRNTYLHWYQQKPGQAPRLLIYKVSNRVPGVPDRFSGSGSGTDFTLKISRVEAEDVGVYYCAQGTSVPFTFGQGTKLEIK | 0
H183/L072 VL F96N (antibody, name in Kabat numbering, V domains shown, Dual-Ig) VH: QVQLVESGGGLVQPGRSLRLSCAASGFTFSNAWMHWVRQAPGKGLEWVAQIKDKGNAYAAYYAPSVKGRFTISRDDSKNSIYLQMNSLKTEDTAVYYCHYVHYASASTVLPAFGVDAWGQGTTVTVSS VL: DIVMTQSPLSLPVTPGEPASISCQASQELVHMNRNTYLHWYQQKPGQAPRLLIYKVSNRFPGVPDRFSGSGSGTDFTLKISRVEAEDVGVYYCAQGTSVPNTFGQGTKLEIK | 0
H183/L072 VL F55S (antibody, name in Kabat numbering, V domains shown, Dual-Ig) VH: QVQLVESGGGLVQPGRSLRLSCAASGFTFSNAWMHWVRQAPGKGLEWVAQIKDKGNAYAAYYAPSVKGRFTISRDDSKNSIYLQMNSLKTEDTAVYYCHYVHYASASTVLPAFGVDAWGQGTTVTVSS VL: DIVMTQSPLSLPVTPGEPASISCQASQELVHMNRNTYLHWYQQKPGQAPRLLIYKVSNRSPGVPDRFSGSGSGTDFTLKISRVEAEDVGVYYCAQGTSVPFTFGQGTKLEIK | 0
H183/L072 VL F96K (antibody, name in Kabat numbering, V domains shown, Dual-Ig) VH: QVQLVESGGGLVQPGRSLRLSCAASGFTFSNAWMHWVRQAPGKGLEWVAQIKDKGNAYAAYYAPSVKGRFTISRDDSKNSIYLQMNSLKTEDTAVYYCHYVHYASASTVLPAFGVDAWGQGTTVTVSS VL: DIVMTQSPLSLPVTPGEPASISCQASQELVHMNRNTYLHWYQQKPGQAPRLLIYKVSNRFPGVPDRFSGSGSGTDFTLKISRVEAEDVGVYYCAQGTSVPKTFGQGTKLEIK | 0
H183/L072 VL F96G (antibody, name in Kabat numbering, V domains shown, Dual-Ig) VH: QVQLVESGGGLVQPGRSLRLSCAASGFTFSNAWMHWVRQAPGKGLEWVAQIKDKGNAYAAYYAPSVKGRFTISRDDSKNSIYLQMNSLKTEDTAVYYCHYVHYASASTVLPAFGVDAWGQGTTVTVSS VL: DIVMTQSPLSLPVTPGEPASISCQASQELVHMNRNTYLHWYQQKPGQAPRLLIYKVSNRFPGVPDRFSGSGSGTDFTLKISRVEAEDVGVYYCAQGTSVPGTFGQGTKLEIK | 0
H183/L072 VL F96P (antibody, name in Kabat numbering, V domains shown, Dual-Ig) VH: QVQLVESGGGLVQPGRSLRLSCAASGFTFSNAWMHWVRQAPGKGLEWVAQIKDKGNAYAAYYAPSVKGRFTISRDDSKNSIYLQMNSLKTEDTAVYYCHYVHYASASTVLPAFGVDAWGQGTTVTVSS VL: DIVMTQSPLSLPVTPGEPASISCQASQELVHMNRNTYLHWYQQKPGQAPRLLIYKVSNRFPGVPDRFSGSGSGTDFTLKISRVEAEDVGVYYCAQGTSVPPTFGQGTKLEIK | 0
H183/L072 VL F96L (antibody, name in Kabat numbering, V domains shown, Dual-Ig) VH: QVQLVESGGGLVQPGRSLRLSCAASGFTFSNAWMHWVRQAPGKGLEWVAQIKDKGNAYAAYYAPSVKGRFTISRDDSKNSIYLQMNSLKTEDTAVYYCHYVHYASASTVLPAFGVDAWGQGTTVTVSS VL: DIVMTQSPLSLPVTPGEPASISCQASQELVHMNRNTYLHWYQQKPGQAPRLLIYKVSNRFPGVPDRFSGSGSGTDFTLKISRVEAEDVGVYYCAQGTSVPLTFGQGTKLEIK | 0
H183/L072 VL F96M (antibody, name in Kabat numbering, V domains shown, Dual-Ig) VH: QVQLVESGGGLVQPGRSLRLSCAASGFTFSNAWMHWVRQAPGKGLEWVAQIKDKGNAYAAYYAPSVKGRFTISRDDSKNSIYLQMNSLKTEDTAVYYCHYVHYASASTVLPAFGVDAWGQGTTVTVSS VL: DIVMTQSPLSLPVTPGEPASISCQASQELVHMNRNTYLHWYQQKPGQAPRLLIYKVSNRFPGVPDRFSGSGSGTDFTLKISRVEAEDVGVYYCAQGTSVPMTFGQGTKLEIK | 0
H183/L072 VL F96E (antibody, name in Kabat numbering, V domains shown, Dual-Ig) VH: QVQLVESGGGLVQPGRSLRLSCAASGFTFSNAWMHWVRQAPGKGLEWVAQIKDKGNAYAAYYAPSVKGRFTISRDDSKNSIYLQMNSLKTEDTAVYYCHYVHYASASTVLPAFGVDAWGQGTTVTVSS VL: DIVMTQSPLSLPVTPGEPASISCQASQELVHMNRNTYLHWYQQKPGQAPRLLIYKVSNRFPGVPDRFSGSGSGTDFTLKISRVEAEDVGVYYCAQGTSVPETFGQGTKLEIK | 0
H183/L072 VL F96H (antibody, name in Kabat numbering, V domains shown, Dual-Ig) VH: QVQLVESGGGLVQPGRSLRLSCAASGFTFSNAWMHWVRQAPGKGLEWVAQIKDKGNAYAAYYAPSVKGRFTISRDDSKNSIYLQMNSLKTEDTAVYYCHYVHYASASTVLPAFGVDAWGQGTTVTVSS VL: DIVMTQSPLSLPVTPGEPASISCQASQELVHMNRNTYLHWYQQKPGQAPRLLIYKVSNRFPGVPDRFSGSGSGTDFTLKISRVEAEDVGVYYCAQGTSVPHTFGQGTKLEIK | 0
H183/L072 VL F96A (antibody, name in Kabat numbering, V domains shown, Dual-Ig) VH: QVQLVESGGGLVQPGRSLRLSCAASGFTFSNAWMHWVRQAPGKGLEWVAQIKDKGNAYAAYYAPSVKGRFTISRDDSKNSIYLQMNSLKTEDTAVYYCHYVHYASASTVLPAFGVDAWGQGTTVTVSS VL: DIVMTQSPLSLPVTPGEPASISCQASQELVHMNRNTYLHWYQQKPGQAPRLLIYKVSNRFPGVPDRFSGSGSGTDFTLKISRVEAEDVGVYYCAQGTSVPATFGQGTKLEIK | 0
H183/L072 VL F96S (antibody, name in Kabat numbering, V domains shown, Dual-Ig) VH: QVQLVESGGGLVQPGRSLRLSCAASGFTFSNAWMHWVRQAPGKGLEWVAQIKDKGNAYAAYYAPSVKGRFTISRDDSKNSIYLQMNSLKTEDTAVYYCHYVHYASASTVLPAFGVDAWGQGTTVTVSS VL: DIVMTQSPLSLPVTPGEPASISCQASQELVHMNRNTYLHWYQQKPGQAPRLLIYKVSNRFPGVPDRFSGSGSGTDFTLKISRVEAEDVGVYYCAQGTSVPSTFGQGTKLEIK | 0

From US20210388087A1 (Chugai, published 2021)
